In article PMC4140777:

Legend:
[1] = target: T1, β-bungarotoxin (β-BuTx) (Bungarus multicinctus) (UniProt P00618+P00987); test: fluorescence anisotropy; conditions: 20 mM HEPES pH 7.4, 150 mM NaCl, 5 mM KCl, 2 mM MgCl2, 2 mM CaCl2, room temperature
[2] = target: T1, β-bungarotoxin (β-BuTx) (Bungarus multicinctus); test: filter binding; conditions: 20 mM HEPES pH 7.4, 150 mM NaCl, 5 mM KCl, 2 mM MgCl2, 2 mM CaCl2, room temperature

T1 sequence (P00618 26-145, chain 1 of 2): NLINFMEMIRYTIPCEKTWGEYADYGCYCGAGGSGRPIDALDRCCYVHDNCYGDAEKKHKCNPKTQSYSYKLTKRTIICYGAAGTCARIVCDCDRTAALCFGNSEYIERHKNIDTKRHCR
T1 sequence (P00987 25-85, chain 2 of 2): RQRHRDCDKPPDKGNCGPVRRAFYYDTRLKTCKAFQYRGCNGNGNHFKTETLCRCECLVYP

## AGCAGCACAGAGGTCAGATGGCAATGCACCTTTGTCTCTTATAGTTTATTTTTTGCCTTCCTATGCGTGCTACCGTGAA [βB-32]
[1]
  Kd: 995 nM

## AGCAGCACAGAGGTCAGATGTTTGGTGTGGATCCTGAACATTTATATTCTTTCGTTTTTTCCTATGCGTGCTACCGTGAA [βB-19]
[1]
  Kd: 530 nM

## AGCAGCACAGAGGTCAGATGGTTTTCCCCTTGTCGCTTTTGGTTCGTTCTGCCTCTATCTCCTATGCGTGCTACCGTGAA [βB-1]
[2]
  binding signal: 45 % bound
[1]
  Kd: 65.9 nM

## AGCAGCACAGAGGTCAGATGATTAGTCATGTTTGTTTGTCTGGCTTTTTGGGTTTGTGCAGTATTATGAACCCTATGCGTGCTACCGTGAA [βB-20]
[1]
  Kd: 83.8 nM
